According to the nanobody polyreactivity screen of Harvey et al. (2022):

test: yeast display, Sf9 membrane polyspecificity reagent, FACS + sequencing; frameworks hold sequencing errors
Summary of the method: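 After 36–48 hours of galactose induction, yeast (Saccharomyces cerevisiae BJ5465) displaying a synthetic nanobody library were stained at 4 °C for 1 hour with 10% biotinylated, detergent-solubilized Sf9 membrane reagent. Streptavidin microbeads enriched the stained cells before FACS sorting into low and high (top ~1%) gates on anti-HA and streptavidin fluorescence. Each clone's polyreactivity label reflects its gate of origin.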

| Sequence | polyreactivity (PSR sort gate) |
| --- | --- |
| QVQLVESGGGLVQAGGSLRLSCAASGSIFTYAMGWYRQAPGKERELVAAITYSGGRTDYADSVKGRFTISRDNAKNTVYLQMNSLKPEDTAVYYCAVRARPYPYYGALMYYWGQGTQVTVSS | low polyreactivity |
| QVQLVESGGGLVQAGGSLRLSCAASGSILYYYAMGWYRQAPGKERELVAAISWSGASTYYADSVKGRFTISRDNAKNTVYLQMNSLIPEDTAVYYCNADYTRDRYVANRYYYWGQGTQVTVSS | high polyreactivity |
| QVQLVESGGGLVQAGGSVRLSCAASGRILKVYPMGWYRQAPGKEWEFVAAISVNGGRTYYADSVKGRFTISRDNAKNTVYLQRQRLNPEDTAVYYCAKRLYKPGNVFYSVDQSDYWGQGTQVTVSS | low polyreactivity |
| QVQLVESGGGLVQAGGSLRLSCASTGRIFDRNAMGWYRQAPGKVRELVAAISRRGGSTYYADSVKGRFTISRDNAKNNVYLQMNILKPEDTAVYYCNSGYSTRLHDYWGQGTQVTVSS | high polyreactivity |
| QVQLVESGGGLVQAGGSLRLSCAASGSIFTHYPMGWYRQAPGKERELVAAISRRGGSTYYADSVKGRFTISRDNAKNTVYLQMNSLKPEDTAVYYCAKSPDTAKEYDYWGQGTQVTVSS | high polyreactivity |
| QVQLVESGGGLVQAGGSLRLSCAASGSIFGGYAMGWYRQAPGKERELVATISYSGDSTYYADSVKGRFTISRDHAKNTVYLQMNSLKPEDTAVDYCATESNGSPYKGDYWGQGTQVTVSS | low polyreactivity |
| QVQLVESGGGLVQAGGSLRLSCAASGFIFYRYAMGWYRQAPGKERELVAAISRSGGSTYYADSVKGRFTISRDNAKNTVYLQMNSLKPEDTAVYYCAADRGSLAPGNDYWGQGNQVTVSS | high polyreactivity |
| QVQLVESGGGLVQAGGSLRLSCAASVITFVFYAMGWYRQAPGKEREFVAGITWRGGRTYYADSVKGRFTISRDNAKNTVYLQMNSLKPEDTAVYYCNARSVVLTGGDYWGQGTQVTVSS | high polyreactivity |
| QVQLVESGGGLVQAGGSLRISCAASGRIFHGNARGWYRPAPGKERELVAAITSGGRTFYADSVKGRFTISRDNAKNTVYLQLHSLKPEDTAVYYCNAPSIAGYAEYNSHDYWGHGTQVTVSS | high polyreactivity |
| QVQLVESGGGLVQAGGSLRLSCAASGLIFRYNAMGWYRQAPGKERELVAAISRSGGTTYYADSVKGRFTISRDNAKNTVYLQMNSLKPEDTAVYYCATRISQSYYNYGYWGQGTQVTVSS | high polyreactivity |
| QVHLVESGGGLVQAGGSLRLSCAASGRIFGVNAMGWYRQAPGKERELVAAITWSGGSTYYADSVKGRFTISRDNAKITVYLEMNSLKPEDTAVYYCAVEGQFDDGWAWYDYWGQGTQVTVSS | high polyreactivity |
| QVHLVESGGGLVQAGGSLRLSCPASGRTFYRKAMGWDRQAPGKERELVAAITSGGGTTYADSVKGRFTISRDNAKNTVYLQMNSLKPEDTAVYYCAAGRVRRRVLYNYWGQGTQVTVSS | high polyreactivity |
| QVQLVESGGGLVQAGGSLRLSCAASGRTFYSNAMGWYRQAPGKERELVATISSGGSTNYADSVKGRFTISRDNAKNTVYLQMNSLKPEDTAVYYCATRPDRINDYWGQGTQVTVSS | low polyreactivity |
| QFQLEESGGGLVQAGGSLRLSCAASGSTFLRYAMGWYRQAPGKERELVAAITGRGTRTYYADSVKGRFTISRDNAKNTVYLQMNSLKPEDTAVYYCAAELSFTPRYYEGRIFYYWGQGTQVTVSS | high polyreactivity |
| QVQLVESAGGLVQAGGSLRLSCAASGRTFDAYAMGWYRQAPGKERELVATITSGGGTYYADSVKGRFTISRDNAKNTVYLLMNSLTPEDTAVYYCNKRYVVSRKYDYWGQGTQVTVSS | low polyreactivity |
| QVQLVESGGGLVQPGGSLRLSCAASGSIFLRYAMGWYRQAPGKERELVAGITSGGSTNYADSVKGRFTISRDNAKNTVYLQMNSLKPEDTAVYYCNKDLPDWGQGTQVTVSS | low polyreactivity |
| QVQLVESGGGLLQAGGSLRLSCAASGRTFRAYTMGWYRQAPGKERELVAAISTPGGSTYYADSVKGRFTISRDNAKNTVYLQMNSLKPEDSAVYYCAAGTFYYWLSYDYWGQGTQVTVSS | low polyreactivity |
| HVQLVESGGGLVQAGGSLRLSCAASGSIFKRYAMGWYTQAPGKERELVAAITSGGSTNYADSVKGRFTISRDNAKNTVYLQMNSLKPEDTAVYYCAAEHDYYPSNLDYWGQGTQVTVSS | low polyreactivity |
| QVQLVESGGGLVQAGGSLRLSCAASGITFRYYAMGWYRQAPGKERELVATISSSGARTYYADSVKGRFTISRDNAKNTVYFQINSLKPEDTAVYYCNAVTFTLHSQPYDYWGQGTQVTVSS | high polyreactivity |
| QDQLVESGGGLVQAGGSLRLSCAASGRNFYRYVMGWYRQAPGKERELVAAITSSGGSTYYADSVKGRFTISRDNAKNTFYLQMNSLKPEDTAVYYCAADRYTRYRYYYWGKGTQVTVSS | high polyreactivity |
| QVQLVESGGGLVQAGGSLRLSCAASGITFGYYAMGWSRQAPGKERELVAAINWRGGNTYYADSVKGRFTISRDNAKNTVYLQMNSLKPEDTAVYYCNALYKRYTDYDYWGQGSQVTVSS | high polyreactivity |
| QVQLVESGGGLVQAGGSLRLSFAASGLNFRVYAMGWYTQAPGTERELVAAISRGGSTYYADSVKGRFTISRDNAKNTVYLQMNSLKPEDTAVYYCAAVFVHRGYYYWGQGTQVTVSS | high polyreactivity |
| QVQLVESGGGLVQAGGSLRLSCAASGRIFKQYAMGWYRQAPGKERELVAAISVRGGITYYADSVKGRFTISRDNAKNTVYLQMNSLKPEDTAVYYCAKRSYRTHTYDYWGQGTQVTVSS | low polyreactivity |
| QVQLVESVGGLVQAGGSLRLSCAASGITFYYYVMGWYRQAPGKERELVAAIDTGDSTYYADSVKGRFTISRDNAKNTVYLQMNSLKPEDTAVYYCAVDYEADNELNGPDQEYGRDSWGQGTQVTVSS | low polyreactivity |
| QVQLVESVGGLVQAGGSLRLSCAASGSIFYPYAMGWYRQAPGKERELVAAIRNGRSTYYADSVKGRFTISRDNAKNTVYLKMNSLKPEDTAVYYCAASVRRRHPFEYWGQGTQVTVSS | high polyreactivity |
| QVQLVESGGGLVQAGGSLRLSCAASGFTFDLYAKGWYRQAPGKERELVAVITRGGSTYYADSVKGRFTISRDNAKNTVYLQMNSLKPEDTAVYYCAKYSIIDWWGGEDYWGQGTQVTVSS | high polyreactivity |
| QVQLVESGGGLVQAGGSLRLSCAASGLTFNPNAMGWYRQAPGKERDLVADITYRGGSTYYADSEKGRFTISRDNAKNTDYLQMYSLKPEDTAVYYCAAQYIGWHLYWYDYWGQGTQVTVSS | low polyreactivity |
| QVQLVESGGGLVQAGGSLRLSCAASGRTFGYYAMGWYRQAPGKERELVAAITDSGDITYYADSVKGRFTISRDNAKNTVYLQMNSLKPEDTAVYYCAADSYEFWSEVYTGESWGQGTQVTVSS | low polyreactivity |
| QVQLVESGGGLVQAGGSLRLSCAASGSTFKRYAMGWYRQAPGKEWELVAAISASGGSTSYADSVKGRFTISRDKAKNTVYLQMNSLIPEDTAVYYCARDRFRSRLDYWGQGTQVTVSS | high polyreactivity |
| QVQLVDSGGGLVQAGGTLRLSCAASGSTLYFYAMGWYRLAPGKERELVAAITYIGGRTSYADSVKGRFTISRDNAKNTVYLQMNSLKPEDTAVYYCAAAPYGYRRYEYWGQGTQVTVSS | high polyreactivity |
